From the supplement of paper PMC6755084

B1: F1*; the commonest letter at each place (parent)
chain: GAGACCGCAACTGAAAAGTTGTTATCACTTGTCGTAAGACACTTTGGATGGGTTGAAGTTCTGCACGTAGAAGCAAAAGGC

Variants of: B1
Assay: fraction ligated after 30 min (ligated reads / total reads); higher = more ligase activity
Details: with F1*sub RNA substrate (template-directed ligation), 42 °C
Method: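 Chip-synthesised pool of F1* ligase ribozyme variants (all single and double substitutions, single, double and triple deletions in the catalytic core and GAA bulge, plus designed variants) was transcribed with T7 and reacted as a pool with excess substrate F1*sub for 30 min at 42 C in 50 mM EPPS pH 8.5, 25 mM MgCl2. Ligated and unligated bands were separated by PAGE, barcoded by RT and deep sequenced; fraction ligated = ligated reads / total reads per variant, relative activity = FL / FL of wild type (0.826). Sequences are the DNA template of the ribozyme.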

In order of falling fraction ligated:
1. GAGACCGCAACTGAAAAGTTGTTATCACTGGTAGTAAGACACTTTGGATGGGTTGAAGTTCTGCACGTAGAAGCAAAAGGC  0.86
2. GAGACCGCAACTGAAAAGTTGTTATCACTAGTCGTCAGACACTTTGGATGGGTTGAAGTTCTGCACGTAGAAGCAAAAGGC  0.854
3. GAGACCGCAACTGAAAAGTTGTTATCACTTGTCGTAAGACACATTGGATGGGTTAAAGTTCTGCACGTAGAAGCAAAAGGC  0.854
4. GAGACCGCAACTGAAAAGTTGTTATCACTTGTCGTAAGACAGTATGGATGGGTTGAAGTTCTGCACGTAGAAGCAAAAGGC  0.851
5. GAGACCGCAACTGAAAAGTTGTGATCACTTATCGTAAGACACTTTGGATGGGTTGAAGTTCTGCACGTAGAAGCAAAAGGC  0.849
6. GAGACCGCAACTGAAAAGTTGTTATCACTTGTCATAAGACACTTTGGATGGGTTGAAGTTCTGCACGTAGAAGCAAAAGGC  0.848
7. GAGACCGCAACTGAAAAGTTGTTATCCCTTGTCGTAAGACACATTGGATGGGTTGAAGTTCTGCACGTAGAAGCAAAAGGC  0.844
8. GAGACCGCAACTGAAAAGTTGTTATCACTTGTCGTAAGGCACTTTGGATGGGTTAAAGTTCTGCACGTAGAAGCAAAAGGC  0.844
9. GAGACCGCAACTGAAAAGTTGTTATCACCTGTCGAAAGACACTTTGGATGGGTTGAAGTTCTGCACGTAGAAGCAAAAGGC  0.843
10. GAGACCGCAACTGAAAAGTTGTTATCACTTGTCGTATGACACTTTGGATGGGTTGAGGTTCTGCACGTAGAAGCAAAAGGC  0.842
11. GAGACCGCAACTGAAAAGTTGTTATCGCTAGTCGTAAGACACTTTGGATGGGTTGAAGTTCTGCACGTAGAAGCAAAAGGC  0.839
12. GAGACCGCAACTGAAAAGTTGTTATCACATGTCGTAAGACACTATGGATGGGTTGAAGTTCTGCACGTAGAAGCAAAAGGC  0.833
13. GAGACCGCAACTGAAAAGTTGTTATCACATGTCGTAAGACACTCTGGATGGGTTGAAGTTCTGCACGTAGAAGCAAAAGGC  0.825
14. GAGACCGCAACTGAAAAGTTGTTAGCACTTGTCGTAAGACACTTTGGCTGGGTTGAAGTTCTGCACGTAGAAGCAAAAGGC  0.819
15. GAGACCGCAACTGAAAAGTTGTTATCACTTGTAGTAAGACCCTTTGGATGGGTTGAAGTTCTGCACGTAGAAGCAAAAGGC  0.818
16. GAGACCGCAACTGAAAAGTTGTTATCACTTGCCGAAAGACACTTTGGATGGGTTGAAGTTCTGCACGTAGAAGCAAAAGGC  0.811
17. GAGACCGCAACTGAAAAGTTGTTATCACTTGTCGTAAGCGACTTTGGATGGGTTGAAGTTCTGCACGTAGAAGCAAAAGGC  0.811
18. GAGACCGCAACTGAAAAGTTGTTATCACTTGTCGTACGAGACTTTGGATGGGTTGAAGTTCTGCACGTAGAAGCAAAAGGC  0.809
19. GAGACCGCAACTGAAAAGTTGTTATCAGTTGTCGTAGGACACTTTGGATGGGTTGAAGTTCTGCACGTAGAAGCAAAAGGC  0.809
20. GAGACCGCAACTGAAAAGTTGTGATCACTTGTCGTAACACACTTTGGATGGGTTGAAGTTCTGCACGTAGAAGCAAAAGGC  0.808
21. GAGACCGCAACTGAAAAGTTGTTATCCATTGTCGTAAGACACTTTGGATGGGTTGAAGTTCTGCACGTAGAAGCAAAAGGC  0.807
22. GAGACCGCAACTGAAAAGTTGTTATCACTTGTCGGAAGACACTTTGGATGGGTTCAAGTTCTGCACGTAGAAGCAAAAGGC  0.807
23. GAGACCGCAACTGAAAAGTTGTTATCCCTTGTCGTAAAACACTTTGGATGGGTTGAAGTTCTGCACGTAGAAGCAAAAGGC  0.807
24. GAGACCGCAACTGAAAAGTTGTTATCACTGGCCGTAAGGCCCTTTGGATGGGTTGAAGTTCTGCACGTAGAAGCAAAAGGC  0.803
25. GAGACCGCAACTGAAAAGTTGTTATCACTTGTCGTAAGGGACTTTGGATGGGTTGAAGTTCTGCACGTAGAAGCAAAAGGC  0.802
26. GAGACCGCAACTGAAAAGTTGTTATCACGTGTCGTAAGACACTGTGGATGGGTTGAAGTTCTGCACGTAGAAGCAAAAGGC  0.791
27. GAGACCGCAACTGAAAAGTTGTCATCACTCGTCGTAAGACACTTTGGATGGGTTGAAGTTCTGCACGTAGAAGCAAAAGGC  0.789
28. GAGACCGCAACTGAAAAGTTGTTATCCCTTGTCGTAAGACACTCTGGATGGGTTGAAGTTCTGCACGTAGAAGCAAAAGGC  0.788
29. GAGACCGCAACTGAAAAGTTGTTATCACTTGTCGTAAGAAACTTTGGATGGGTTTAAGTTCTGCACGTAGAAGCAAAAGGC  0.787
30. GAGACCGCAACTGAAAAGTTGTTATCACTGGTCGTAAGACACTTTGGATGGGTTGAGGTTCTGCACGTAGAAGCAAAAGGC  0.787
31. GAGACCGCAACTGAAAAGTTGTTATCACTTGTCGTAAGCCACTTTGGATGGGTTGAGGTTCTGCACGTAGAAGCAAAAGGC  0.786
32. GAGACCGCAACTGAAAAGTTGTGATCCCTTGTCGTAAGACACTTTGGATGGGTTGAAGTTCTGCACGTAGAAGCAAAAGGC  0.785
33. GAGACCGCAACTGAAAAGTTGTCATCGCTTGTCGTAAGACACTTTGGATGGGTTGAAGTTCTGCACGTAGAAGCAAAAGGC  0.781
34. GAGACCGCAACTGAAAAGTTGTTATCACTTGTCGTAAGACACTTTGGATGGGTTGGAGTTCTGCACGTAGAAGCAAAAGGC  0.781
35. GAGACCGCAACTGAAAAGTTGTTATCACTTTTCGTAAGACACATTGGATGGGTTGAAGTTCTGCACGTAGAAGCAAAAGGC  0.778
36. GAGACCGCAACTGAAAAGTTGTTATCACTTGTCGCAAGACCCTTTGGATGGGTTGAAGTTCTGCACGTAGAAGCAAAAGGC  0.777
37. GAGACCGCAACTGAAAAGTTGTTTTCACTTGTCGTAAGACACTATGGATGGGTTGAAGTTCTGCACGTAGAAGCAAAAGGC  0.772
38. GAGACCGCAACTGAAAAGTTGTTACCACTTGTCGTCAGACACTTTGGATGGGTTGAAGTTCTGCACGTAGAAGCAAAAGGC  0.771
39. GAGACCGCAACTGAAAAGTTGTTATCACTTGTCGTAAGACACTTTGGATGGGTTGCAGTTCTGCACGTAGAAGCAAAAGGC  0.767
40. GAGACCGCAACTGAAAAGTTGTGATCACTCGTCGTAAGACACTTTGGATGGGTTGAAGTTCTGCACGTAGAAGCAAAAGGC  0.765
41. GAGACCGCAACTGAAAAGTTGTTATCACTTGTCGTAAGACGCTTTGGATGGGTTTAAGTTCTGCACGTAGAAGCAAAAGGC  0.754
42. GAGACCGCAACTGAAAAGTTGTTATCATTTGCCGTAAGACACTTTGGATGGGTTGAAGTTCTGCACGTAGAAGCAAAAGGC  0.753
43. GAGACCGCAACTGAAAAGTTGTTATCACTCGTCGTAAGACCCTTTGGATGGGTTGAAGTTCTGCACGTAGAAGCAAAAGGC  0.752
44. GAGACCGCAACTGAAAAGTTGTTATCCCTTGTCGTAAGACACTTTGGATGGGTTGCAGTTCTGCACGTAGAAGCAAAAGGC  0.75
45. GAGACCGCAACTGAAAAGTTGTTATCACTTGGCCTAAGACACTTTGGATGGGTTGAAGTTCTGCACGTAGAAGCAAAAGGC  0.726
46. GAGACCGCAACTGAAAAGTTGTTATCACTTGTCGTCAGACACTTTGGACGGGTTGAAGTTCTGCACGTAGAAGCAAAAGGC  0.712
47. GAGACCGCAACTGAAAAGTTGTTATCGCTTGTCGTAAGACACTTAGGATGGGTTGAAGTTCTGCACGTAGAAGCAAAAGGC  0.694
48. GAGACCGCAACTGAAAAGTTGTTAGCACTTGTCGTAAGACTCTTTGGATGGGTTGAAGTTCTGCACGTAGAAGCAAAAGGC  0.662
49. GAGACCGCAACTGAAAAGTTGTTATCACTTGTCGTAAGACAATTTGGATTGGTTGAAGTTCTGCACGTAGAAGCAAAAGGC  0.658
50. GAGACCGCAACTGAAAAGTTGTTATCACTTGTCGTAAGACACTTTGAATTGGTTGAAGTTCTGCACGTAGAAGCAAAAGGC  0.657
51. GAGACCGCAACTGAAAAGTTGTAATCACTTGTCGTAAGACACTTTGGATGGGTTGCAGTTCTGCACGTAGAAGCAAAAGGC  0.653
52. GAGACCGCAACTGAAAAGTTGTCAACACTTGTCGTAAGACACTTTGGATGGGTTGAAGTTCTGCACGTAGAAGCAAAAGGC  0.582
53. GAGACCGCAACTGAAAAGTTGTTTTCACTTGTCGTAAGACACTTTGGATGGGTTAAAGTTCTGCACGTAGAAGCAAAAGGC  0.532
54. GAGACCGCAACTGAAAAGTTGTTATCACTTCTCGTAAGACACTTTGAATGGGTTGAAGTTCTGCACGTAGAAGCAAAAGGC  0.489
55. GAGACCGCAACTGAAAAGTTGTTATCACTTGTCGTAAGACACTTCGTATGGGTTGAAGTTCTGCACGTAGAAGCAAAAGGC  0.379
56. GAGACCGCAACTGAAAAGTTGTTACCACTTGTCGTAAGAGACTTTGGATGGGTTGAAGTTCTGCACGTAGAAGCAAAAGGC  0.378
57. GAGACCGCAACTGAAAAGTTGTTATCACTTGTCGTAAGACACTTTTGGTGGGTTGAAGTTCTGCACGTAGAAGCAAAAGGC  0.352
58. GAGACCGCAACTGAAAAGTTGTTATCACTTGTCGTAAGACACTGTGGATTGGTTGAAGTTCTGCACGTAGAAGCAAAAGGC  0.344
59. GAGACCGCAACTGAAAAGTTGTTATCACTTGTCGTAAGACACTTCTGATGGGTTGAAGTTCTGCACGTAGAAGCAAAAGGC  0.263
60. GAGACCGCAACTGAAAAGTTGTTATGACTTGACGTAAGACACTTTGGATGGGTTGAAGTTCTGCACGTAGAAGCAAAAGGC  0.238
61. GAGACCGCAACTGAAAAGTTGTTAGCACTTGTCGTAAGAAACTTTGGATGGGTTGAAGTTCTGCACGTAGAAGCAAAAGGC  0.229
62. GAGACCGCAACTGAAAAGTTGTTATAACTTGTCGTAAGACCCTTTGGATGGGTTGAAGTTCTGCACGTAGAAGCAAAAGGC  0.21
63. GAGACCGCAACTGAAAAGTTGTTTTCACTTGTCGTAAGACACTTTGGATGGGTTTAAGTTCTGCACGTAGAAGCAAAAGGC  0.18
64. GAGACCGCAACTGAAAAGTTGTTATCCCTTGTCGTAAGACACTTTGGATAGGTTGAAGTTCTGCACGTAGAAGCAAAAGGC  0.18
65. GAGACCGCAACTGAAAAGTTGTTAGCACTTGTCGTAAGACACTTTCGATGGGTTGAAGTTCTGCACGTAGAAGCAAAAGGC  0.135
66. GAGACCGCAACTGAAAAGTTGTTAACACTTGTCGTAACACACTTTGGATGGGTTGAAGTTCTGCACGTAGAAGCAAAAGGC  0.0835
67. GAGACCGCAACTGAAAAGTTGTTACCACTTGTCGTAAGACACTTCGGATGGGTTGAAGTTCTGCACGTAGAAGCAAAAGGC  0.0655
68. GAGACCGCAACTGAAAAGTTGTTATCACTTGGCGTAAGACACTTTGCATGGGTTGAAGTTCTGCACGTAGAAGCAAAAGGC  0.0306
